According to patent US20150232562A1 (Ablynx, published 2015):
Positions count from the first letter of the chain named.

B1: 17C2 (VHH)
VHH: EVQLVESGGGLVQPGGSLRLSCAASGFAFSSYAMSWVRQAPGKGLEWVSAVDSGGGRTDYAHSVKGRFTISRDNAKNTLYLQMSSLKPEDTALYYCTKHVSDSDYTEYDYWGQGTQVTVSS
notes: C-term myc-His6 tag
B2: 17B6 (VHH)
VHH: EVQLVESGGGLVQPGGSLRLSCAASRIPFSTRTMAWYRQAPGKQRDWVATIGTSGPPRYADSVKGRFTVSRDNAKNTVYLQMNSLKAEDTAVYYCWDVNADYWGQGTQVTVSS
notes: C-term myc-His6 tag
B3: 15G4 (VHH)
VHH: EVQLVESGGGLVQAGGSLRLSCVASGIPFRSRTMAWYRQAPGKTRDWVATIGTHGTPLYADSVKGRFTVSRDNAKNTLYLQMNSLKPEDTAVYYCWDVNGDYWGQGTQVTVSS
notes: C-term myc-His6 tag
B4: 27A5 (VHH)
VHH: EVQLVESGGGLVQAGGSLNLSCVASGIPFSTRTMAWYRQPPGNERDWVATIRSGAPVYADSVKGRFTVSRDNAKNTLYLQMNSLEPEDTATYYCWDVNGDIWGQGTPVTVSS
notes: C-term myc-His6 tag
B5: 13C4 (VHH)
VHH: EVQLVESGGGLVQAGGSLRLSCVVSGIPSSIRAMAWYRQAPGRQRDWVATIYSPSGSAVYADSVKGRFTISSDNAKSTIYLQMNSLKPDDTAVYYCRDVNREYWGQGTQVTVSS
notes: C-term myc-His6 tag
B6: 15A6 (VHH)
VHH: EVQLVESGGGLVQAGGSLRLSCVTSRRPASTRTMAWYRQAPGKQRDWVATISSHGLPVYADSVKGRFTVSRDNANNTVYLQMNTLKPEDTAVYYCRDVNADYWGQGTQVTVSS
notes: C-term myc-His6 tag
B7: 17C5 (VHH)
VHH: B6 VHH with Q108P
notes: C-term myc-His6 tag
B8: 15C2 (VHH)
VHH: B6 VHH with P41Q
notes: C-term myc-His6 tag
B9: 17C3 (VHH)
VHH: EVQLVESGGGLVQAGGSLRLSCAANGLTFRRYDMGWYRQAPGQQREWVAAISGAGDINYADSVKGRFTMARDNANHTVHLQMNSLKPEDTAVYYCNANWKMLLGVENDYWGQGTQVTVSS
notes: C-term myc-His6 tag
B10: 13D7 (VHH)
VHH: B9 VHH
notes: C-term myc-His6 tag
B11: 15C8 (VHH)
VHH: EVQLVESGGGLVQAGGSLRLSCAASGIAFRIRTMAWYRQAPGKQRDWVATSDSGGTTLYADSVKGRFTVSRDNAENTVYLQMNSLKPEDTAVYYCRDVNRDYWGQGTQVTVSS
notes: C-term myc-His6 tag
B12: 27C7 (VHH)
VHH: B11 VHH with E75D
notes: C-term myc-His6 tag
B13: 27B5 (VHH)
VHH: B11 VHH with S21P
notes: C-term myc-His6 tag
B14: 13B12 (VHH)
VHH: B11 VHH with S51I, D52G, G54D, L58I, V69L, D72H
notes: C-term myc-His6 tag
B15: 17A10 (VHH)
VHH: EVQLVESGGGLVQAGGSLRLSCVASGIPSIRAIAWYRQAPGKQRDWVATSGTGYGATYDDSVKGRFTLSRDNAKNTVYLQMNSLKPEDTAVYYCRDVNRDYWGQGTQVTVSS
notes: C-term myc-His6 tag
B16: 13A4 (VHH)
VHH: EVQLVESGGGLVQAGGSLRLSCVASKMTFMRYTMGWYRQAPGKQRDLVASIDSSGGTNYADSVKGRFTISRDNAKNTVYLEMNSLKPEDTGVYYCNGRWDIVGAIWWGQGTQVTVSS
notes: C-term myc-His6 tag
B17: 27H4 (VHH)
VHH: B16 VHH with S53A
notes: C-term myc-His6 tag
B18: 27G5 (VHH)
VHH: EVQLVESGGGLVQPGGSLRLSCVASRIPASIRTMAWYRQTPGNQRDWLATIGSSGTPAYADSVKGRFTVSRDNAKNTVYLQMNSLKPEDTAVYYCRDVNGDYWGQGTQVTVSS
notes: C-term myc-His6 tag
B19: 29E9 (VHH)
VHH: B18 VHH
notes: C-term myc-His6 tag
B20: 13A9 (VHH)
VHH: B18 VHH with P14A, T40A, N43K, L48V, S53T, S54G, V63F, K75N, N76H
notes: C-term myc-His6 tag
B21: 15D8 (VHH)
VHH: B18 VHH with R19K, R26T
notes: C-term myc-His6 tag
B22: 15D12 (VHH)
VHH: EVQLVESGGGLVQAGESLRLSCATSGITFKRYVMGWYRQGPGKQRELVATVNDGGTTSYADSVKGRFAISRDNAKNTAYLQMNSLKAEDTAVYYCNAVWKLPRFVDNDYWGQGTQVTVSS
notes: C-term myc-His6 tag
B23: 46D3 (VHH)
VHH: KVQLVESGGGLVQAGGSLRLSCAASGRTFTEYSMGWFRQAPGKEREFVATISWNYGYTYYSDSVKGRFTVSRDIAENTVYLQMNTLKSEDTAVYYCAAKIGWLSIRGDEYEYWGQGTQVTVSS
notes: C-term myc-His6 tag
B24: 13A8 (VHH)
VHH: EVQLVESGGGLVQPGGSLRLSCAASGLGIAFSRRTMAWYRQAPGKQRDWVATIAGDGSTVYADSMKGRFTISRDNAENTVYLQMNSLKPEDTAVYYCWDVNRDYWGQGTQVTVSS
notes: C-term myc-His6 tag
B25: 17G5 (VHH)
VHH: EVQLVESGGGLVQPGGSLRLSCAASGIGIAFSSRTMAWYRQAPGKQRDWVATIGSGGTTNYADSVKGRFTISRDNAKNTVYLQMNSLKPEDTAVYYCRDINRDYWGQGTQVTVSS
notes: C-term myc-His6 tag
B26: 27D3 (VHH)
VHH: B24 VHH with V5M
notes: C-term myc-His6 tag
B27: 17F5 (VHH)
VHH: B24 VHH with E77K, M84V, V100T, R102G
notes: C-term myc-His6 tag
B28: 15A4 (VHH)
VHH: B24 VHH with E77K, M84I
notes: C-term myc-His6 tag
B29: 14A1 (VHH)
VHH: EVQLVESGGGSVQAGGSLRLSCAASERTFSSYGMGWFRQAPGKEREFVATINWSGVTAYADSVKGRFTISRDNAKKTVYLQMNSLKPEDTAVYYCAAEPYGSGSSLMSEYDYWGHGTQVTVSS
notes: C-term myc-His6 tag
B30: 14B4 (VHH)
VHH: B29 VHH with S11L, A24V, E26S, T28A, E44D, V63I, K76E, A91G, P99T, H115Q
notes: C-term myc-His6 tag
B31: 14A2 (VHH)
VHH: B29 VHH with S11L, M107I
notes: C-term myc-His6 tag
B32: 14C1 (VHH)
VHH: B29 VHH with E26G, R27S, E46A, A97T, P99T, S108N, H115Q
notes: C-term myc-His6 tag
B33: 14B10 (VHH)
VHH: B29 VHH with S11L, A24V, S25N, E26S, V63I, K76E, E88D, A91G, P99T, H115Q
notes: C-term myc-His6 tag
B34: 14C6 (VHH)
VHH: B29 VHH with A23V, R27G, E46A, A97T, E98D, P99T, S108N, H115Q
notes: C-term myc-His6 tag
B35: 14B3 (VHH)
VHH: EVQLVESGGGLVQPGGSLTLSCVASEGTFSSYGMGWFRQAPGKERAFVATINWSGVNAYADSVKGRFTISRDNAKKTAYLQMNSLKPEDTAVYYCAAETYGSGSSLMNEYDYWGQGTQVTVSS
notes: C-term myc-His6 tag
B36: 14C11 (VHH)
VHH: EVQLVESGGGLVQAGGSLRLSCAVNSRTFSSYGMGWFRQAPGKEREFVATINWSGATAYADSIKGRFTISRDNAKETVYLQMNSLKPDDTGVYYCAAETYGSGSSLMSEYDYWGQGTQVTVSS
notes: C-term myc-His6 tag
B37: 14B11 (VHH)
VHH: B29 VHH with S11L, E26G, R27S, A40V, V92R, A96G, A97V, P99T, S108T, H115Q
notes: C-term myc-His6 tag
B38: 14A4 (VHH)
VHH: B35 VHH with L11S, P14A, G16S
notes: C-term myc-His6 tag
B39: 14A12 (VHH)
VHH: B29 VHH with E6K, S11L, M107I
notes: C-term myc-His6 tag
B40: 17F7 (VHH)
VHH: EVQLVESGGGLVQAGGSLRLSCVASGIAQSIRVMAWYRQPPGKQRDWVGTISSDGTANYADSVKGRFTISRDNAKKTMYLQMNSLKPDDTAVYYCRDVNRDYWGQGTQVTVSS
notes: C-term myc-His6 tag

molecular target: T1, recombinant human ErbB2/Fc chimera (human, UniProt P04626 23-652); assay: ELISA, coated ErbB2/Fc
T1 construct: bought from R&D Systems; also called rhErbB2-Fc; rhErb2-Fc; Fc part of the bought chimera not given; not described

Binding result, binds:
B1, B2, B3, B4, B5, B6, B7, B8, B9, B10, B11, B12, B13, B14, B15, B16, B17, B18, B19, B20, B21, B22, B23, B24, B25, B26, B27, B28, B29, B30, B31, B32, B33, B34, B35, B36, B37, B38, B39, B40
